Test results from patent US20180036405A1 (Regeneron, published 2018).

Key:
[1] = molecular target: T1, EGFR on A431 epidermoid carcinoma cells (human, UniProt P00533 25-1210); experiment: cell-based or functional assay
[2] = molecular target: T2, human dimeric EGFR (EGFR.mFc) (human); experiment: SPR 37C, mAb captured by anti-human Fc, EGFR.mFc analyte
T2 construct: Soluble dimeric EGFR construct
Method: (§1) Different concentrations of human monomeric (EGFR.mmh; SEQ ID NO:386) and dimeric (EGFR.mFc; SEQ ID NO:387) proteins were injected over the anti-EGFR monoclonal antibody captured surface at a flow rate of 50 μI/min. Antibody-antigen association was monitored for 4-5 minutes while dissociation of antigen from the captured monoclonal antibody surface was monitored for 10 min. Kinetic association (kₐ) and dissociation (kd) rate constants were determined by processing and fitting the data to a 1:1 binding model using Scrubber 2.0 curve fitting software.

[3] = molecular target: T3, human monomeric EGFR (EGFR.mmh) (human, UniProt P00533 25-647); experiment: SPR 37C, mAb captured by anti-human Fc, EGFR.mmh analyte
T3 construct: Soluble monomeric EGFR construct
Method: as §1

[4] = molecular target: T1, EGFR on A431 epidermoid carcinoma cells; experiment: cell-based or functional assay; remark: listed apart in the source

| Binder | IC50 of A431 Proliferation [1] [Molar] | Kd [2] [nM] | koff [2] [s⁻¹] | kon [2] [M⁻¹ s⁻¹] | t1/2 [2] [min] | Kd [3] [nM] | koff [3] [s⁻¹] | kon [3] [M⁻¹ s⁻¹] | t1/2 [3] [min] | ADCC EC50 [4] [Molar] | Maximum Cell Killing (%) [4] [%] |
| --- | --- | --- | --- | --- | --- | --- | --- | --- | --- | --- | --- |
| H1H134P (antibody, human IgG1, V domains shown, Human IgG1 Fc (H1H)) VH: EVQLVESGGGLVQPGGSLRLSCAASGFTFDDFAIHWVRQTPGRGLEWVSGLSWNSAYIAYADSVKGRFTISRDNAKDSLYLQMNSLRPEDTALYYCVKDTDIHLWFLFDFWGQGTLVTVSS VL: not shown | 1.84e-09 | 0.00799 | 2.47e-05 | 3.09e+06 | 468 | 0.848 | 0.000789 | 930000 | 15 | 4.61e-11 | 33 |
| H1H102N (antibody, human IgG1, V domains shown, Tested in human IgG1 Fc format (H1H); also called H1M102N) VH: QVQLQESGPGLVQPSQTLSLTCTVSGGSVSSGDYYWSWIRQHPGKGLEWIGHIYYSGITYYNPSLESRVTITLDTSKNQFSLNLRSVTAADTAVHYCARTAIIGTMDNWGRGTLVTVSS VL: EIVMTQSPATLSVSPGERATLSCRASQSVSSNLAWYQQKPGQAPRLLIYDASTRATGFPARFSGSGSGTEFTLTISSLQSEDFAVYYCQQYNTWWTFGQGTKVEIK | 2.88e-10 | 0.0651 | 5.62e-05 | 863000 | 206 | 5.67 | 0.000943 | 166000 | 12 | 4.39e-13 | 48 |
| H1H116N (antibody, human IgG1, V domains shown, Tested in human IgG1 Fc format (H1H); also called H1M116N) VH: QVQLQESGPGLVKPSQTLSLTCTVSGGSVSSGDYYWSWIRQHPGKGLDWIGHIYYSGSTYYNPSLKSRVTISLDTSKNQFSLKLNSVTAADTAVYYCARTAITGTMDYWGQGTLVTVSS VL: EIVMTQSPATLSVSAGERATLSCRASQSVSSNLAWFQQKPGQAPRLLIYDASTRATGIPARFSGSGSGTEFTLIISSLQSEDFALYYCQQYNSWWTFGQGTKVEIK | 2.24e-10 | 0.0203 | 3.16e-05 | 1.55e+06 | 366 | 5.27 | 0.00284 | 539000 | 4 | 2.51e-13 | 29 |
| H1H147P (antibody, human IgG1, V domains shown, Human IgG1 Fc (H1H)) VH: EVQLVESGPGLVQPSQTLSLTCTVSGGSINSGDFYWSWIRQHPGKGLEWIGHIYYSGITYYSPSLKSRLTISVDTSKNQFSLKLSSVTAADTAVYYCARKRVTGEVDYWGQGTLVTVSS VL: DIQMTQSPSSLSASVGDRITITCQANQDINNYLNWYQQKPGKAPKLLISDASNLETGVPSRFSGSGSGTDFTFTISSLQPEDIATYYCQQYDNLPPTFGQGTRLEIKR | 9.77e-11 | 0.0664 | 1.26e-05 | 190000 | 914 | 5.76 | 0.000376 | 65400 | 31 |  | 13 |
| H1H142P (antibody, human IgG1, V domains shown, Human IgG1 Fc (H1H)) VH: QVQLQESGPGLVKPSQTLSLTCTVSGGSISSGDYYWNWIRQYPGKGLELIGYIYYSGITYYNPSLKSRLTISLDTSKNQFSLKLSSVTAADTAVYYCARDRVELRAFDIWGQGTMVTVSS VL: DIQMTQSPSSLSASIGDRITISCQASQDINNYLNWYQQKPGKAPKLLIYDASNLETGIPSRFSGSGSGTDFTFTISGLQPEDIATYYCQHYDSLPLTFGQGTRLEIK | 5.47e-10 | 0.0332 | 1.2e-05 | 361000 | 965 | 4.35 | 0.000689 | 158000 | 17 | 1.19e-12 | 34 |
| H1H144P (antibody, human IgG1, V domains shown, Human IgG1 Fc (H1H)) VH: QVQLQESGPGLVMPSQTLSLTCTVSGGSINSGDYYWNWIRQHPGKGLEWIGYIYYSEISYHNPSLKSRVTTSIDTSTNQFSLKLSSVTAADTAVYYCARDRVELRAFDIWGQGTMVTVSS VL: DIQMTQSPSSLSASVGDRVTITCQASQDISNYLNWYQQKPGKAPKLLIYDASNLETGVPSRFSGSGSGTDFTFTISSLQPEDIATYYCQHYDSLPLTFGQGTRLEIK | 1.39e-11 | 0.0217 | 1.94e-05 | 894000 | 596 | 5.25 | 0.000967 | 184000 | 12 | 4.57e-11 | 43 |
| H1H143P (antibody, human IgG1, V domains shown, Human IgG1 Fc (H1H)) VH: QVQLQESGPGLVMPSQTLSLTCTVSGGSINSGDYYWNWIRQHPGKGLEWIGYIYYSEISYHNPSLKSRVTTSIDTSTNQFSLKLSSVTAADTAVYYCARDRVELRAFDIWGQGTMVTVSS VL: DIQMTQSPSSLSASVGDRVTITCQASQDISNYLNWYQQKPGKAPKLLIYDASNLETGVPSRFSGSGSGTDFTFTISSLQPEDIATYYCQHYDSLPLTFGQGTRLEIK | 9.97e-11 | 0.0354 | 1.35e-05 | 381000 | 856 | 5.71 | 0.000727 | 127000 | 16 |  | 13 |
| H1H141P (antibody, human IgG1, V domains shown, Human IgG1 Fc (H1H)) VH: QVQLQESGPGLVKPSQTLSLTCTVSGGSISSGDYYWNWIRQYPGKGLELIGYIYYSGITYYNPSLKSRLTISLDTSKNQFSLKLSSVTAADTAVYYCARDRVELRAFDIWGQGTMVTVSS VL: DIQMTQSPSSLSASVGDRVTITCQASQDISNYLNWYQQKPGKAPKLLINDASNLETGVPSRFSGSGSGTDFTFTISSLQPEDIATYYCQHYDSLPLTFGQGTRLEIK | 1.41e-10 | 0.00831 | 7.51e-06 | 903000 | 1540 | 1.02 | 0.000405 | 396000 | 29 | 2.78e-12 | 41 |
| H1H089N (antibody, human IgG1, V domains shown, Tested in human IgG1 Fc format (H1H); also called H1M089N) VH: EVQLVESGGGLVQPGRSLRLSCAASGFTFDDYAMHWVRQAPGKGLEWVSGINWNSDKIAYADSVKGRFTISRDNAENSLFLQMNSLRPEDTALYYCVKRGDFWTDYYDYWGQGTLVTVSS VL: DIVMTQSPLSLPVTPGEPASISCRSSQSLLHSNGHNYLDWYLQKPGQSPHLLIYLVSNRASGVPDRFSGSGSGTDFTLKISRVEAEDVGVYYCIQALQTPWTFGQGTKVEIK | 2.3e-09 | 0.0301 | 4.49e-05 | 1.49e+06 | 257 | 21.8 | 0.00683 | 313000 | 2 | 5.83e-12 | 53 |
| H1H103N (antibody, human IgG1, V domains shown, Tested in human IgG1 Fc format (H1H); also called H1M103N) VH: EVQLVESGGGLVQPGGSLRLSCAASGFTFSSYDMHWVRQTTGKGLEWVSGIGTAGDTYYPGSVKGRFTISREDAKNSLYLQMNSLRAGDTAVYYCARVGYDWNFVAFDYWGQGTLVTVSS VL: DIVMTQSPLSLPVTPGEPASISCRSSQSLLHSNGYNYLDWYLQKPGQSPQLLIHLVSIRASGVPDRFSGSGSGTDFTLKISRVEAEDVGIYYCMQALQTPWTFGQGTKVEIK | 3.89e-09 | 0.109 | 4.19e-05 | 383000 | 276 | 13.9 | 0.00139 | 100000 | 8 | 7.25e-13 | 17 |
